# Patent US20200216536A1 (published 2020)
# Where “and” joins values, the source holds several entries; their conditions need not be identical. Equal entries are not always repeated.
# Key:
# [1] = biological target: T1, canine FcRn (UniProtKB-E2ROL6 [FcRn] and UniProtKB-E2RN10 [canine beta-2-microglobulin]) (canine); assay: SPR Biacore 8K, pH 5.5, Fc captured on BSA via SASA tag, FcRn 400 nM
# T1 construct: Soluble analyte injected in SPR
# [2] = biological target: T1, canine FcRn (UniProtKB-E2ROL6 [FcRn] …); assay: SPR Biacore 8K, pH 5.5, Fc captured on BSA via SASA tag, FcRn 200 nM
# [3] = biological target: T1, canine FcRn (UniProtKB-E2ROL6 [FcRn] …); assay: as above; remark: listed apart in the source
# [4] = biological target: T1, canine FcRn (UniProtKB-E2ROL6 [FcRn] …); assay: SPR Biacore 8K, pH 5.5, Fc captured on BSA via SASA tag, FcRn 100-800 nM
# [5] = biological target: T1, canine FcRn (UniProtKB-E2ROL6 [FcRn] …); assay: SPR Biacore 8K, pH 5.5, Fc captured on BSA via SASA tag, FcRn 200 nM; remark: listed apart in the source
# [6] = biological target: T1, canine FcRn (UniProtKB-E2ROL6 [FcRn] …); assay: as above; remark: listed apart in the source
# [7] = biological target: T1, canine FcRn (UniProtKB-E2ROL6 [FcRn] …); assay: as above; remark: listed apart in the source
# [8] = biological target: T1, canine FcRn (UniProtKB-E2ROL6 [FcRn] …); assay: as above; remark: listed apart in the source
# [9] = biological target: T1, canine FcRn (UniProtKB-E2ROL6 [FcRn] …); assay: as above; remark: listed apart in the source
# [10] = biological target: T1, canine FcRn (UniProtKB-E2ROL6 [FcRn] …); assay: as above; remark: listed apart in the source
binder,measurement,setting,value
canine IgG.B Fc (CH2-CH3) variant E380A (Fc fusion) APEMLGGPSVFIFPPKPKDTLLIARTPEVTCVVVDLDPEDPEVQISWFVDGKQMQTAKTQPREEQFNGTYRVVSVLPIGHQDWLKGKQFTCKVNNKALPSPIERTISKARGQAHQPSVYVLPPSREELSKNTVSLTCLIKDFFPPDIDVAWQSNGQQEPESKYRTTPPQLDEDGSYFLYSKLSVDKSRWQRGDTFICAVMHEALHNHYTQESLSHSPGK,Kd,[1],0.618 µM and 0.747 µM
same,koff,[1],0.369 s⁻¹ and 0.18 s⁻¹
same,kon,[1],598000 M⁻¹ s⁻¹ and 241000 M⁻¹ s⁻¹
same,Kd,[2],1.32 µM and 1.57 µM
same,koff,[2],0.223 s⁻¹ and 0.239 s⁻¹
same,kon,[2],168000 M⁻¹ s⁻¹ and 152000 M⁻¹ s⁻¹
canine IgG.B Fc (CH2-CH3) variant T250Q (Fc fusion) APEMLGGPSVFIFPPKPKDQLLIARTPEVTCVVVDLDPEDPEVQISWFVDGKQMQTAKTQPREEQFNGTYRVVSVLPIGHQDWLKGKQFTCKVNNKALPSPIERTISKARGQAHQPSVYVLPPSREELSKNTVSLTCLIKDFFPPDIDVEWQSNGQQEPESKYRTTPPQLDEDGSYFLYSKLSVDKSRWQRGDTFICAVMHEALHNHYTQESLSHSPGK,Kd,[3],2.59 µM and 2.84 µM
same,koff,[3],0.258 s⁻¹ and 0.268 s⁻¹
same,kon,[3],99600 M⁻¹ s⁻¹ and 94300 M⁻¹ s⁻¹
canine IgG.B Fc (CH2-CH3) variant T250E (Fc fusion) APEMLGGPSVFIFPPKPKDELLIARTPEVTCVVVDLDPEDPEVQISWFVDGKQMQTAKTQPREEQFNGTYRVVSVLPIGHQDWLKGKQFTCKVNNKALPSPIERTISKARGQAHQPSVYVLPPSREELSKNTVSLTCLIKDFFPPDIDVEWQSNGQQEPESKYRTTPPQLDEDGSYFLYSKLSVDKSRWQRGDTFICAVMHEALHNHYTQESLSHSPGK,Kd,[3],2.48 µM and 1.66 µM
same,koff,[3],0.284 s⁻¹ and 0.287 s⁻¹
same,kon,[3],114000 M⁻¹ s⁻¹ and 172000 M⁻¹ s⁻¹
canine IgG.B Fc (CH2-CH3) variant L252Y (Fc fusion) APEMLGGPSVFIFPPKPKDTLYIARTPEVTCVVVDLDPEDPEVQISWFVDGKQMQTAKTQPREEQFNGTYRVVSVLPIGHQDWLKGKQFTCKVNNKALPSPIERTISKARGQAHQPSVYVLPPSREELSKNTVSLTCLIKDFFPPDIDVEWQSNGQQEPESKYRTTPPQLDEDGSYFLYSKLSVDKSRWQRGDTFICAVMHEALHNHYTQESLSHSPGK,Kd,[4],0.173 µM
same,koff,[4],0.0476 s⁻¹
same,kon,[4],275000 M⁻¹ s⁻¹
same,Kd,[5],0.0987 µM and 0.114 µM
same,koff,[5],0.0397 s⁻¹ and 0.041 s⁻¹
same,kon,[5],402000 M⁻¹ s⁻¹ and 358000 M⁻¹ s⁻¹
canine IgG.B Fc (CH2-CH3) variant L252M (Fc fusion) APEMLGGPSVFIFPPKPKDTLMIARTPEVTCVVVDLDPEDPEVQISWFVDGKQMQTAKTQPREEQFNGTYRVVSVLPIGHQDWLKGKQFTCKVNNKALPSPIERTISKARGQAHQPSVYVLPPSREELSKNTVSLTCLIKDFFPPDIDVEWQSNGQQEPESKYRTTPPQLDEDGSYFLYSKLSVDKSRWQRGDTFICAVMHEALHNHYTQESLSHSPGK,Kd,[5],0.869 µM and 0.774 µM
same,koff,[5],0.168 s⁻¹ and 0.169 s⁻¹
same,kon,[5],193000 M⁻¹ s⁻¹ and 218000 M⁻¹ s⁻¹
canine IgG.B Fc (CH2-CH3) variant A254T (Fc fusion) APEMLGGPSVFIFPPKPKDTLLITRTPEVTCVVVDLDPEDPEVQISWFVDGKQMQTAKTQPREEQFNGTYRVVSVLPIGHQDWLKGKQFTCKVNNKALPSPIERTISKARGQAHQPSVYVLPPSREELSKNTVSLTCLIKDFFPPDIDVEWQSNGQQEPESKYRTTPPQLDEDGSYFLYSKLSVDKSRWQRGDTFICAVMHEALHNHYTQESLSHSPGK,Kd,[6],2.29 µM and 1.34 µM
same,koff,[6],0.375 s⁻¹ and 0.433 s⁻¹
same,kon,[6],163000 M⁻¹ s⁻¹ and 323000 M⁻¹ s⁻¹
canine IgG.B Fc (CH2-CH3) variant G309P (Fc fusion) APEMLGGPSVFIFPPKPKDTLLIARTPEVTCVVVDLDPEDPEVQISWFVDGKQMQTAKTQPREEQFNGTYRVVSVLPIPHQDWLKGKQFTCKVNNKALPSPIERTISKARGQAHQPSVYVLPPSREELSKNTVSLTCLIKDFFPPDIDVEWQSNGQQEPESKYRTTPPQLDEDGSYFLYSKLSVDKSRWQRGDTFICAVMHEALHNHYTQESLSHSPGK,Kd,[7],0.635 µM and 0.434 µM and 0.637 µM and 0.718 µM
same,koff,[7],0.239 s⁻¹ and 0.242 s⁻¹ and 0.132 s⁻¹ and 0.145 s⁻¹
same,kon,[7],377000 M⁻¹ s⁻¹ and 558000 M⁻¹ s⁻¹ and 207000 M⁻¹ s⁻¹ and 202000 M⁻¹ s⁻¹
canine IgG.B Fc (CH2-CH3) variant Q311V (Fc fusion) APEMLGGPSVFIFPPKPKDTLLIARTPEVTCVVVDLDPEDPEVQISWFVDGKQMQTAKTQPREEQFNGTYRVVSVLPIGHVDWLKGKQFTCKVNNKALPSPIERTISKARGQAHQPSVYVLPPSREELSKNTVSLTCLIKDFFPPDIDVEWQSNGQQEPESKYRTTPPQLDEDGSYFLYSKLSVDKSRWQRGDTFICAVMHEALHNHYTQESLSHSPGK,Kd,[8],0.372 µM and 0.439 µM
same,koff,[8],0.566 s⁻¹ and 0.696 s⁻¹
same,kon,[8],1.52e+06 M⁻¹ s⁻¹ and 1.59e+06 M⁻¹ s⁻¹
canine IgG.B Fc (CH2-CH3) variant D378V (Fc fusion) APEMLGGPSVFIFPPKPKDTLLIARTPEVTCVVVDLDPEDPEVQISWFVDGKQMQTAKTQPREEQFNGTYRVVSVLPIGHQDWLKGKQFTCKVNNKALPSPIERTISKARGQAHQPSVYVLPPSREELSKNTVSLTCLIKDFFPPDIVVEWQSNGQQEPESKYRTTPPQLDEDGSYFLYSKLSVDKSRWQRGDTFICAVMHEALHNHYTQESLSHSPGK,Kd,[9],0.693 µM and 0.873 µM
same,koff,[9],0.159 s⁻¹ and 0.16 s⁻¹
same,kon,[9],229000 M⁻¹ s⁻¹ and 184000 M⁻¹ s⁻¹
canine IgG.B Fc (CH2-CH3) variant N434W (Fc fusion) APEMLGGPSVFIFPPKPKDTLLIARTPEVTCVVVDLDPEDPEVQISWFVDGKQMQTAKTQPREEQFNGTYRVVSVLPIGHQDWLKGKQFTCKVNNKALPSPIERTISKARGQAHQPSVYVLPPSREELSKNTVSLTCLIKDFFPPDIDVEWQSNGQQEPESKYRTTPPQLDEDGSYFLYSKLSVDKSRWQRGDTFICAVMHEALHWHYTQESLSHSPGK,Kd,[4],0.101 µM
same,koff,[4],0.045 s⁻¹
same,kon,[4],446000 M⁻¹ s⁻¹
same,Kd,[10],0.0404 µM and 0.0757 µM
canine IgG.B Fc (CH2-CH3) variant N434R (Fc fusion) APEMLGGPSVFIFPPKPKDTLLIARTPEVTCVVVDLDPEDPEVQISWFVDGKQMQTAKTQPREEQFNGTYRVVSVLPIGHQDWLKGKQFTCKVNNKALPSPIERTISKARGQAHQPSVYVLPPSREELSKNTVSLTCLIKDFFPPDIDVEWQSNGQQEPESKYRTTPPQLDEDGSYFLYSKLSVDKSRWQRGDTFICAVMHEALHRHYTQESLSHSPGK,Kd,[4],0.182 µM
same,koff,[4],0.0801 s⁻¹
same,kon,[4],440000 M⁻¹ s⁻¹
same,Kd,[10],0.107 µM and 0.159 µM
same,koff,[10],0.0524 s⁻¹ and 0.0633 s⁻¹
same,kon,[10],488000 M⁻¹ s⁻¹ and 399000 M⁻¹ s⁻¹
